± gives the uncertainty stated by the source.

B1: Friend leukemia integration 1 transcription factor, residues 116 to 197; numbered along this chain, Q01543 (parent)
chain: NMTTNERRVIVPADPTLWTQEHVRQWLEWAIKEYSLMEIDTSFFQNMDGKELCKMNKEDFLRATTLYNTEVLLSHLSYLRES

The variants in the series derive from B1. As to the kind of experiment: abundance fitness (aPCA) (normalised: wild type 0, dead -1); higher = more abundant; growth selection in yeast, the domain comes from the species named. The following applies: Homo sapiens.
I39P: the abundance fitness was -0.654 ± 0.14. On to I39A, for which the abundance fitness was -0.259 ± 0.079. With I39F the figure was -0.112 ± 0.26; with I39Q, -0.743 ± 0.18. Turning to Q45E, the abundance fitness was determined as 0.045 ± 0.081.

On to Q45P, for which the abundance fitness is -0.381 ± 0.1. Take Q45S: the abundance fitness was -0.003 ± 0.084.

For the variant Q45A, the abundance fitness was 0.028 ± 0.067. With Q45M the figure was 0.026 ± 0.074; with Q45L, -0.009 ± 0.049.

As to Q45F, the abundance fitness was -0.102 ± 0.16. For F44C, the abundance fitness was -0.117 ± 0.06.

In the case of F44D, the abundance fitness was -0.914 ± 0.2. As to F44L, the abundance fitness is -0.227 ± 0.04. As for F44G, the abundance fitness is -0.637 ± 0.045. Consider F44I, for which the abundance fitness is -0.278 ± 0.083. As for F44A, the abundance fitness is -0.095 ± 0.042. Regarding F44N, the abundance fitness was -0.875 ± 0.23. Consider F44S, for which the abundance fitness was -0.499 ± 0.059. F44V: the abundance fitness is -0.21 ± 0.039. Regarding F44T, the abundance fitness is -0.453 ± 0.067. For N46C, the abundance fitness is -0.153 ± 0.11. With N46L the figure was -0.175 ± 0.085. As to N46R, the abundance fitness worked out at 0.066 ± 0.064. With L36S the figure was -0.566 ± 0.12; with L36C, -0.769 ± 0.28; with L36A, -0.83 ± 0.14. On to L36T, for which the abundance fitness was -0.51 ± 0.12. Take L72V: the abundance fitness was -0.6 ± 0.097. Turning to L72I, the abundance fitness was 0.063 ± 0.33.

In the case of L72P, the abundance fitness is -0.78 ± 0.22. For the variant N56F, the abundance fitness was -0.515 ± 0.21. Consider N56V, for which the abundance fitness was -0.054 ± 0.072. Take N56I: the abundance fitness was -0.247 ± 0.11. With P12T the figure was -0.021 ± 0.097. On to P12K, for which the abundance fitness is -0.155 ± 0.12. Under P12N stands -0.021 ± 0.27; under D48W, -0.82 ± 0.21; under D48H, -0.366 ± 0.23. Under D48Q stands -0.205 ± 0.1. With D48E the figure was -0.222 ± 0.11; with D48G, -0.114 ± 0.094. As for D48V, the abundance fitness amounted to 0.031 ± 0.08.

In the case of D48C, the abundance fitness is -0.388 ± 0.17. Regarding D48A, the abundance fitness was -0.118 ± 0.084. With Y34W the figure was 0.046 ± 0.077. As for Y34A, the abundance fitness was -0.274 ± 0.09.

On to K57Y, for which the abundance fitness was -0.145 ± 0.14.

In the case of K57D, the abundance fitness was -0.312 ± 0.16. As to K57A, the abundance fitness is -0.268 ± 0.11.

Turning to K57W, the abundance fitness is -0.124 ± 0.11.

For I31H, the abundance fitness was -0.034 ± 0.36. Take I31F: the abundance fitness was -0.549 ± 0.22. Under I31G stands -0.384 ± 0.073; under I31Q, -0.075 ± 0.1; under I31L, -0.305 ± 0.071.

In the case of A30C, the abundance fitness is -0.058 ± 0.14. With A30V the figure was -0.092 ± 0.059.

Take A30E: the abundance fitness is -0.071 ± 0.11. A30N: the abundance fitness was -0.136 ± 0.3. For D14N, the abundance fitness was -0.063 ± 0.21. With D14S the figure was -0.229 ± 0.17; with D14W, -0.354 ± 0.14; with D14E, 0.096 ± 0.12.

For D14P, the abundance fitness is -0.415 ± 0.26. In the case of D14K, the abundance fitness was -0.564 ± 0.19. With D14R the figure was -0.701 ± 0.12; with L61W, -0.04 ± 0.081. In the case of L61M, the abundance fitness is -0.123 ± 0.15. As to L61G, the abundance fitness is -0.236 ± 0.069. Take D40N: the abundance fitness worked out at 0.162 ± 0.14. Consider D40I, for which the abundance fitness was -0.576 ± 0.36.

Consider D40E, for which the abundance fitness is -0.043 ± 0.11. D40A: the abundance fitness is -0.486 ± 0.1.

In the case of D40K, the abundance fitness was -0.276 ± 0.18. With D40R the figure was -0.469 ± 0.084. Take A13F: the abundance fitness is -0.081 ± 0.086.

Consider A13G, for which the abundance fitness turned out to be 0.123 ± 0.05. Under A13N stands 0.183 ± 0.11; under A13R, 0.023 ± 0.041; under A13I, 0.048 ± 0.1. For A13E, the abundance fitness stood at 0.189 ± 0.068.

As to E28L, the abundance fitness is -0.013 ± 0.069. Under E28Q stands 0.005 ± 0.12.

Take E28K: the abundance fitness worked out at 0.058 ± 0.098. With E28T the figure was -0.017 ± 0.098; with Q25R, -0.006 ± 0.081; with Q25H, -0.083 ± 0.25. With Q25P, the abundance fitness was -0.915 ± 0.25. Regarding Q25K, the abundance fitness was determined as 0.041 ± 0.13. For Q25W, the abundance fitness was -0.251 ± 0.1. With Q25Y the figure was -0.143 ± 0.14. With Q25L, the abundance fitness was -0.093 ± 0.15.

For Y67W, the abundance fitness was -0.153 ± 0.092. Regarding Y67V, the abundance fitness is 0.064 ± 0.078. Y67N: the abundance fitness is -0.014 ± 0.23. With Y67S the figure was 0.074 ± 0.072; with Y67F, -0.219 ± 0.15; with Y67M, -0.111 ± 0.083. S35D: the abundance fitness was -0.02 ± 0.16.

For the variant S35C, the abundance fitness is -0.183 ± 0.18. For S35N, the abundance fitness was determined as 0.011 ± 0.24. For E51G, the abundance fitness is -0.058 ± 0.068.

As to E51T, the abundance fitness was 0.034 ± 0.082.

As for E51P, the abundance fitness was -0.766 ± 0.17.

Consider E51Q, for which the abundance fitness is 0.03 ± 0.08. Turning to T41G, the abundance fitness was -0.129 ± 0.097. For T41C, the abundance fitness is 0.015 ± 0.15. For the variant W26M, the abundance fitness is -0.445 ± 0.13. With W26N the figure was -0.732 ± 0.35; with W26T, -1.01 ± 0.3; with L76N, -0.799 ± 0.46. L76E: the abundance fitness is -0.794 ± 0.32. On to L76S, for which the abundance fitness is -0.553 ± 0.17. With L76Q the figure was -0.879 ± 0.23; with T64N, -0.531 ± 0.28; with T64K, -0.796 ± 0.27. With T64M, the abundance fitness is -0.02 ± 0.15. In the case of V9S, the abundance fitness was 0.212 ± 0.073. On to V9I, for which the abundance fitness is -0.122 ± 0.12. Take V9Y: the abundance fitness was -0.605 ± 0.46.

In the case of V9N, the abundance fitness came out at 0.18 ± 0.16. In the case of V9F, the abundance fitness is -0.018 ± 0.2. Under W29R stands 0.003 ± 0.055. In the case of W29A, the abundance fitness was 0.101 ± 0.062. W29H: the abundance fitness is -0.033 ± 0.12. With W29Q the figure was 0.084 ± 0.09. Regarding W29N, the abundance fitness was determined as 0.432 ± 0.32. As to W29T, the abundance fitness is 0.13 ± 0.082.

On to W29L, for which the abundance fitness is -0.116 ± 0.05. Take W29I: the abundance fitness is -0.029 ± 0.22. For W29P, the abundance fitness is -1.01 ± 0.18. Turning to T19C, the abundance fitness is -0.296 ± 0.27. Take T19I: the abundance fitness was -0.529 ± 0.2.

On to E6F, for which the abundance fitness is -0.435 ± 0.21. E6S: the abundance fitness is -0.028 ± 0.084. For L27E, the abundance fitness is -0.857 ± 0.33. Turning to L27D, the abundance fitness is -0.532 ± 0.37. As to L27R, the abundance fitness was -0.876 ± 0.18. On to L27G, for which the abundance fitness is -0.284 ± 0.12. As to L27I, the abundance fitness is -0.132 ± 0.19. Under D59W stands -0.106 ± 0.067; under D59M, -0.17 ± 0.076.

Consider D59E, for which the abundance fitness was -0.184 ± 0.1. Under D59I stands -0.607 ± 0.31. D59T: the abundance fitness is -0.189 ± 0.086. Q20W: the abundance fitness was -0.123 ± 0.11. As for Q20H, the abundance fitness amounted to 0.018 ± 0.35. With Q20V the figure was -0.137 ± 0.078. As for Q20N, the abundance fitness was determined as 0.218 ± 0.29. Take K32P: the abundance fitness was -0.359 ± 0.099. As to K32C, the abundance fitness was -0.401 ± 0.11. For the variant K32I, the abundance fitness was -0.189 ± 0.2. With K32D the figure was 0.007 ± 0.12; with K32T, -0.001 ± 0.083. With K32M the figure was -0.209 ± 0.099.

K32W: the abundance fitness was -0.159 ± 0.057. For the variant E81D, the abundance fitness was -0.092 ± 0.23. E21I: the abundance fitness is -0.474 ± 0.32. Under E21T stands -0.131 ± 0.14; under E21W, -0.295 ± 0.1. For the variant E21G, the abundance fitness was -0.151 ± 0.094.

With E21M, the abundance fitness was -0.045 ± 0.1. Under S74G stands 0.026 ± 0.12. Regarding S74C, the abundance fitness is -0.101 ± 0.17. As for S74V, the abundance fitness was -0.567 ± 0.14. For the variant S74R, the abundance fitness was 0.042 ± 0.13.

The values are drawn from the Human Domainome abundance scans (Beltran et al. 2025).
